# Measurements reported in US20190032056, “STEM-LOOP COMPOSITIONS AND METHODS FOR INHIBITING FACTOR D” (Vitrisa Therapeutics, Inc., published 2019).
# Numbering of substitutions follows the chain as printed.
# B1: Aptamer 16 (ssRNA)
# RNA: CGCCUUGCCAGUAUUGGCUUAGGCUGGAAGUUUGGCG
# modifications: 2'-F G; 2'-OMe A,C,U; 5' C6NH2; 3' idT
# B2: Aptamer 98 (ssRNA)
# RNA: GGCCUUGCCCGUAUUGGCGAUGGCGGGAAGUUUGGCC
# modifications: 2'-F G; 2'-OMe A,C,U; 5' C6NH2; 3' idT
# B3: Aptamer 93 (ssRNA)
# RNA: GCCUUGAGGGUAUUGGCGAUGGCCCUAAGUUUGGC
# modifications: 2'-F G; 2'-OMe A,C,U; 5' C6NH2; 3' idT
# B4: Aptamer 92 (ssRNA)
# RNA: B3 RNA with A7C, U26G
# modifications: 2'-F G; 2'-OMe A,C,U; 5' C6NH2; 3' idT
# B5: Aptamer 33 (ssRNA)
# RNA: CAGCCAUGCAAGUAUUGGCUUAGGCUUGAAGUUCGGCUG
# modifications: 2'-F G; 2'-OMe A,C,U; 5' C6NH2; 3' idT
# B6: Aptamer 34 (ssRNA)
# RNA: CAGCCGUGCUAGUAUUGGCAUUGGCUAGAAGUUAGGCUG
# modifications: 2'-F G; 2'-OMe A,C,U; 5' C6NH2; 3' idT
# B7: Aptamer 35 (ssRNA)
# RNA: CCGCCUUGCGAGUAAUGGCGUAGGCUCGAAGUUGGGCGG
# modifications: 2'-F G; 2'-OMe A,C,U; 5' C6NH2; 3' idT
# B8: Aptamer 36 (ssRNA)
# RNA: CCGACUUGCCAGUGUUGGCUUUGGCUGGAAGUUUGUCGG
# modifications: 2'-F G; 2'-OMe A,C,U; 5' C6NH2; 3' idT
# B9: Aptamer 38 (ssRNA)
# RNA: CUGCCUUGCGGGUAUUGGCGUUGGCCCGAAGUUUGGCUG
# modifications: 2'-F G; 2'-OMe A,C,U; 5' C6NH2; 3' idT
# B10: Aptamer 39 (ssRNA)
# RNA: B8 RNA with G14A, U20G, U21A
# modifications: 2'-F G; 2'-OMe A,C,U; 5' C6NH2; 3' idT
# B11: Aptamer 40 (ssRNA)
# RNA: CGCAUUGCUAGUAUUGGCUUAGGCUAGAAGUGUUGCG
# modifications: 2'-F G; 2'-OMe A,C,U; 5' C6NH2; 3' idT
# B12: Aptamer 54 (ssRNA)
# RNA: CCGACUUGCGGGUAUUGGCGAUGGCCCGAAGUUUGUCGG
# modifications: 2'-F G; 2'-OMe A,C,U; 5' C6NH2; 3' idT
# B13: Aptamer 55 (ssRNA)
# RNA: CGACUUGCGGGUAUUGGCGAUGGCCCGAAGUUUGUCG
# modifications: 2'-F G; 2'-OMe A,C,U; 5' C6NH2; 3' idT
# B14: Aptamer 57 (ssRNA)
# RNA: B9 RNA with U21A
# modifications: 2'-F G; 2'-OMe A,C,U; 5' C6NH2; 3' idT
# B15: Aptamer 59 (ssRNA)
# RNA: B12 RNA with A21U
# modifications: 2'-F G; 2'-OMe A,C,U; 5' C6NH2; 3' idT
# B16: Aptamer 60 (ssRNA)
# RNA: B1 RNA with U19G, U20A, A21U
# modifications: 2'-F G; 2'-OMe A,C,U; 5' C6NH2; 3' idT
# B17: Aptamer 62 (ssRNA)
# RNA: B8 RNA with G14A, U16A, U21C, U22A
# modifications: 2'-F G; 2'-OMe A,C,U; 5' C6NH2; 3' idT
# B18: Aptamer 64 (ssRNA)
# RNA: B8 RNA with G14A, G17A, U22A
# modifications: 2'-F G; 2'-OMe A,C,U; 5' C6NH2; 3' idT
# B19: Aptamer 66 (ssRNA)
# RNA: B8 RNA with G14A, U20C, U22A
# modifications: 2'-F G; 2'-OMe A,C,U; 5' C6NH2; 3' idT
# B20: Aptamer 68 (ssRNA)
# RNA: B8 RNA with G14A, U20G, U21C
# modifications: 2'-F G; 2'-OMe A,C,U; 5' C6NH2; 3' idT
# B21: Aptamer 69 (ssRNA)
# RNA: B8 RNA with G14A, U20G, U21C, U22A
# modifications: 2'-F G; 2'-OMe A,C,U; 5' C6NH2; 3' idT
# B22: Aptamer 71 (ssRNA)
# RNA: B8 RNA with G14A, U20G, U21A, U22A
# modifications: 2'-F G; 2'-OMe A,C,U; 5' C6NH2; 3' idT
# B23: Aptamer 72 (ssRNA)
# RNA: B8 RNA with G14A, U21C
# modifications: 2'-F G; 2'-OMe A,C,U; 5' C6NH2; 3' idT
# B24: Aptamer 88 (ssRNA)
# RNA: B8 RNA with G14A, U22A
# modifications: 2'-F G; 2'-OMe A,C,U; 5' C6NH2; 3' idT
# B25: Aptamer 104 (ssRNA)
# RNA: B1 RNA
# modifications: 2'-F G except 2'-OMe G in stem 1; 2'-OMe A,C,U; 5' C6NH2; 3' idT
# B26: Aptamer 107 (ssRNA)
# RNA: B1 RNA with C3A, G35U
# modifications: 2'-F G except 2'-OMe G in stem 1; 2'-OMe A,C,U; 5' C6NH2; 3' idT
# B27: Aptamer 108 (ssRNA)
# RNA: B3 RNA with A7C, U26G
# modifications: 2'-F G except 2'-OMe G in stem 1; 2'-OMe A,C,U; 5' C6NH2; 3' idT
# B28: Aptamer 109 (ssRNA)
# RNA: B2 RNA
# modifications: 2'-F G except 2'-OMe G in stem 1; 2'-OMe A,C,U; 5' C6NH2; 3' idT
# B29: Aptamer 99 (ssRNA)
# RNA: B1 RNA with U19G, U20A, A21U
# modifications: 2'-F G except 2'-OMe G in stem 1; 2'-OMe A,C,U; 5' C6NH2; 3' idT
# B30: C1 (ssRNA)
# RNA: GGGAGUGUGUACGAGGCAUUAGGCCGCCACCCAAACUGCAGUCCUCGUAAGUCUGCCUGGCGGCUUUGAUACUUGAUCGCCCUAGAAGC
# modifications: 2'-F G; 2'-OMe A, C, U
# B31: C2 (ssRNA)
# RNA: GGGAGUGUGUACGAGGCAUUAGUCCGCCGAAGUCUUUUGGCUCGGUUUUUUCAAGGUCGGCGGCUUUGAUACUUGAUCGCCCUAGAAGC
# modifications: 2'-F G; 2'-OMe A, C, U
# B32: C3 (ssRNA)
# RNA: GGGAGUGUGUACGAGGCAUUAGGCCGCCACCUCGUUUGAUUGCGGUUGUUCGGCCGCGGGCGGCUUUGAUACUUGAUCGCCCUAGAAGC
# modifications: 2'-F G; 2'-OMe A, C, U
# B33: Aptamer 116 (ssRNA)
# RNA: CCGCCUUGCCAGUAUUGGCGAUGGCUGGAAGUUUGGCGG
# modifications: 2'-F G except 2'-OMe G in stem 1; 2'-OMe A,C,U; 5' C6NH2; 3' idT
# B34: P04 (PEGylated Aptamer 74) (ssRNA)
# RNA: B33 RNA with G20U, A21U, U22A
# modifications: as Aptamer 74 (2'-OMe G at 3,35,36,38,39; other G 2'-F; 2'-OMe A,C,U); 5' 40 kDa branched PEG via C6NH2; 3' idT
# B35: Aptamer 1723 (ssRNA)
# RNA: B33 RNA with G20U, A21U, U22A
# modifications: 2'-F G except 2'-OMe G at 3,12,24,27,28,35,36,38,39; 2'-OMe A,C,U; 5' C6SH; 3' idT
# B36: Aptamer 1721 (ssRNA)
# RNA: B33 RNA with G20U, A21U, U22A
# modifications: 2'-F G except 2'-OMe G at 3,12,27,35,36,38,39; 2'-OMe A,C,U; 5' C6SH; 3' idT
# B37: Aptamer 1722 (ssRNA)
# RNA: B33 RNA with G20U, A21U, U22A
# modifications: 2'-F G except 2'-OMe G at 3,12,27,28,35,36,38,39; 2'-OMe A,C,U; 5' C6SH; 3' idT
# Molecular target: T1, complement Factor D (fD) in C1q-depleted human serum (Homo sapiens, UniProt P00746 SEQ:1-228)
# T1 sequence (P00746 26-253): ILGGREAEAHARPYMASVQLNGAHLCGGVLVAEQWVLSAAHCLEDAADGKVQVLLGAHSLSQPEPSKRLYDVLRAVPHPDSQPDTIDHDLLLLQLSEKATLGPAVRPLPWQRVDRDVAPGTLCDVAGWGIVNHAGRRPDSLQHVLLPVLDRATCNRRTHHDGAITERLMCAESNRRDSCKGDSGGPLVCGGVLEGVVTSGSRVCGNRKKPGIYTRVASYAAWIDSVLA
# Assay: inhibition; hemolysis
# Conditions: protein: extract; tags: endogenous fD, about 9.6 nM in 10% serum; hairpin
# Experimental: (§1) In V-bottom 96-well plates the following reagents were added to a final volume of 250 μL: appropriate volume of 1× Veronal buffer with 0.1% gelatin, 100 μL aptamer, 30 μL of C1q-depleted human serum and 20 μl RBCs. This mixture was incubated for 25 minutes at room temperature, then the reaction was stopped by the addition of 5 μL of 500 mM EDTA. The plate was centrifuged for 5 minutes at 500×g at room temperature, then 100 μL of supernatant was removed and the extent of RBC lysis was determined by measuring absorbance at 405 nm.
# To this end, series of aptamer variants were designed based on the loop L2 sequences for Aptamers 15, 39, and 38 in which the sequence of S1 and S2 were altered while maintaining pairing (Table 17). These included Aptamers 90, and 94-98. Additionally, a truncate of Aptamer 38 (Aptamer 91) was designed with 3 base pairs in stem S1. The stem elements (S1 and S2) from this molecule were also used to generate Aptamer 92, which contained L2 from Aptamer 39.
row,Binder,IC50 [nM]
1,B1,< 10
2,B2,< 10
3,B3,~100
4,B4,~10

# Molecular target: T1, complement Factor D (fD) in …
# Assay: inhibition; hemolysis
# Conditions: protein: extract; tags: endogenous fD, about 9.6 nM in 10% serum; hairpin
# Remark: another data set of the same source
row,Binder,IC50 [nM]
1,B5,11
2,B6,6.9
3,B7,5.4
4,B8,8.2
5,B9,5.5
6,B10,3.1
7,B11,5.8
8,B12,~10
9,B13,~10
10,B14,~10
11,B15,< 10
12,B16,< 10
13,B17,~10
14,B18,~100
15,B19,~100
16,B20,~10
17,B21,< 10
18,B22,< 10
19,B23,~100
20,B24,< 10

# Molecular target: T2, complement Factor D (fD) (Homo sapiens, UniProt P00746 SEQ:1-228)
# T2 sequence (P00746 26-253): as above
# Assay: SPR
# Conditions: tags: amine-coupled to dextran chip for SPR; free in esterase assay; hairpin
# Experimental: The binding affinity of aptamers for fD was determined by surface plasmon resonance (SPR) on a Reichert4 SPR System, where either aptamer or fD was immobilized as ligand on a solid surface and the interactant analyte was flowed in solution over the immobilized ligand (Table 20).
row,Binder,Kd [nM]
1,B25,3.9
2,B26,4.2
3,B27,2.7
4,B28,1.07
5,B29,3.34

# Molecular target: T2, complement Factor D (fD)
# Assay: competition; signal reduced about 75-90% by 100 nM AFD anti-fD Fab; SB1T, 37 C
# Conditions: tags: His-tagged, immobilized on magnetic His capture beads; label: Dy650 via hybridized 2'-OMe reverse oligo
# Experimental: Competition binding assays were performed using a clone of an anti-fD Fab with an amino acid sequence of heavy chain variable region according to SEQ ID NO:7 and light chain variable region according to SEQ ID NO:8 (hereinafter, “AFD”) to further assess binding. For the competition assays, beads labelled with fD were first incubated with 50 nM round or individual aptamer, in 50 μl SB1T (with ssDNA and BSA), for 30 minutes at 37° C. The beads were then washed with SB1T to remove unbound aptamers and incubated with or without 100 nM AFD for 30 minutes at 37° C. Following incubation, the beads were washed three times with SB1T, and assayed by flow cytometry (FIG. 12). […] In cases where aptamers are sufficiently outcompeted by AFD as described above, such aptamers were presumed to be binding to the exosite or the self-inhibitory loop of fD.
row,Binder,binding result
1,B30,binds
2,B31,binds
3,B32,binds

# Molecular target: T1, complement Factor D (fD) in …
# Assay: inhibition; hemolysis
# Conditions: protein: extract; tags: endogenous fD, about 9.6 nM in 10% serum; hairpin
# Remark: another data set of the same source
# Experimental: as §1
# The following nine aptamers with 2′OMe-Gs in Stem 1 (S1) were synthesized: Aptamer 76 (2′OMe-Gs substituted in Stem 1 (S1) of Aptamer 39), Aptamer 116 (Aptamer comprising loop 2 (L2) of Aptamer 39 and Stem 1 (51) of Aptamer 15 with 2′OMe-Gs in Stem 1 (S1)), Aptamer 102 (4 base pair 2′OMe-G Stem 1 (S1) variant of Aptamer 76), Aptamer 104 (4 base pair 2′OMe-G Stem 1 (S1) variant of Aptamer 74), Aptamer 106 (Aptamer 88 with 2′OMe-G Stem 1 (S1)), Aptamer 107 (4 base pair 2′OMe-G Stem 1 (S1) variant of Aptamer 88), Aptamer 108 (3 base pair 2′OMe-G Stem 1 (S1) variant of Aptamer 92), Aptamer 109 (4 base pair 2′OMe-G Stem 1 (S1) variant of Aptamer 98) and, Aptamer 99 (4 base pair 2′OMe-G Stem 1 (S1) variant of Aptamer 60).
row,Binder,IC50 [nM]
1,B25,< 10
2,B26,< 10
3,B27,< 10
4,B28,< 10
5,B29,< 10
6,B33,< 10

# Molecular target: T1, complement Factor D (fD) in …
# Assay: inhibition; hemolysis, sd 0.8
# Conditions: protein: extract; tags: endogenous fD, about 9.6 nM in 10% serum; hairpin
# Experimental: as §1
# The potency of the PEG-aptamers P01, P04, P06, P07 and P08 compared to their non-pegylated counterparts was determined in the alternative complement-dependent hemolysis assay as described in Example 2.
row,Binder,IC50 [nM]
1,B34,3.2

# Molecular target: T2, complement Factor D (fD)
# Assay: flow; bead-based direct binding
# Conditions: tags: His-tagged recombinant, bead-immobilized via His capture beads (flow) or anti-His Eu (TR-FRET); hairpin
row,Binder,Kd [nM]
1,B35,45
2,B36,4.5
3,B37,11
